Laboratory results reported in patent US12467053 (BIOMOLECULAR, dated 2025).

Tests used:
[1] = molecular target: T1, TNF-alpha (R&D Systems) (UniProt P01375 77-233); assay: Biacore T-100 SPR, response against TNF-alpha concentration. Symmetroadhesin thiol-coupled to a CM-5 chip.
T1 construct: also called tumor necrosis factor α; TNF-α

[2] = molecular target: T1, TNF-alpha (R&D Systems); assay: Biacore T-100 SPR, response against TNF-alpha concentration. Symmetroadhesin amine-coupled to a CM-5 chip.

T1 sequence (P01375 77-233 limits assumed): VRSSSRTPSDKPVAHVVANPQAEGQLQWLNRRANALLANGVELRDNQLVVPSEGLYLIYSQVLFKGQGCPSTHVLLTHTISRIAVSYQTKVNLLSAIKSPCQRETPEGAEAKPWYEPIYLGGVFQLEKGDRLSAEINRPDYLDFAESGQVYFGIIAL

- EC50 (read off the curve) [1]: ~0.9 nM
- EC50 (read off the curve) [2]: ~4 nM
B1: TNR1B symmetroadhesin of FIG. 44A (iv) (human TNR1B extracellular domain with a C-terminal-X-terminus) (receptor)
chain: LPAQVAFTPYAPEPGSTCRLREYYDQTAQMCCSKCSPGQHAKVFCTKTSDTVCDSCEDSTYTQLWNWVPECLSCGSRCSSDQVETQACTREQNRICTCRPGWYCALSKQEGCRLCAPLRKCRPGFGVARPGTETSDVVCKPCAPGTFSNTTSSTDICRPHQICNVVAIPGNASMDAVCTSTSPTRSMAPGAVHLPQPVSTRSQHTQPTPEPSTAPSTSFLLPMGPSPPAEGSTGDGC
modifications: C-terminal X residue (residue 237) added by native chemical ligation; cysteine in the material made (cleavage/elution with cysteine)
notes: The same molecule was immobilised by amine chemistry and by thiol chemistry; also called TNR1B-X; TNR2-X
